Data as given in patent US20230152323A1 (NORDIC BIOSCIENCE A S, published 2023).
No end group written: not given here.

Experiments:
[1] = target: T1, Non-sense coating peptide VPKDLPPDTT-biotin; assay: ELISA, peptide coated on a streptavidin plate
T1 construct: Held on streptavidin-coated plates; also called non-sense biotinylated coating peptide
T1 peptide: VPKDLPPDTT-biotin
Description: The target sequence was used as the standard peptide ([…]; SEQ ID NO: 1). A biotinylated peptide ([…]-K-biotin; SEQ ID NO:7) was included as a coating peptide with addition of a lysine residue to the C-terminal end to ensure biotin linking. The specificity of the antibody was tested by including an elongated standard peptide with an additional amino acid added to the N-terminal of the target peptide sequence ([…]; SEQ ID NO: 2), a truncated standard peptide with a removal of the first N-terminal amino acid ([…]; SEQ ID NO: 3) as well as a non-sense standard peptide ([…]; SEQ ID NO: 4) and a non-sense biotinylated coating peptide ([…]-biotin; SEQ ID NO: 5) in the assay validation. Four peptides (Von Willebrand factor, glucagon, SPARC-like protein 1 and ADAMTS15) with one amino acid mismatch compared to the first six amino acids in the target sequence were also included to further test the antibody specificity. The immunogenic peptide ([…]-GGC-KLH; SEQ ID NO: 6) was generated by covalently cross-linking the standard peptide to Keyhole Limpet Hemocyanin (KLH) carrier protein using Succinimidyl 4-(N-maleimidomethyl)cyclohexane-1-carboxylate, SMCC (Thermo Scientific, Waltham, MA, USA, cat.no. 22336). Glycine and cysteine residues were added at the C-terminal end to ensure right linking of the carrier protein. […]

[2] = target: T2, Standard peptide LLARDFEKNY (human); assay: preliminary competitive ELISA, hybridoma supernatant, 10 ng/mL biotinylated coating peptide
T2 construct: Synthetic peptide from Genscript with a free N-terminus; also called calibration peptide
T2 peptide: LLARDFEKNY
Description: The reactivity of the monoclonal antibody was evaluated by displacement using human serum samples and the standard peptide ([…]; SEQ ID NO: 1) in a preliminary ELISA using 10 ng/mL biotinylated coating peptide on streptavidin-coated microtiter plates (Roche, Basel, Switzerland, cat. #11940279) and the supernatant from the antibody producing monoclonal hybridoma cells. The clone with the best reactivity towards the standard peptide was purified using protein-G-columns according to the manufacturer’s instructions (GE Healthcare Life Sciences, Little Chalfont, UK, cat. #17-0404-01 ).

[3] = target: T3, Von Willebrand factor (VWF) peptide LLARDCQDHS (human); assay: competitive SPARC-M ELISA, peptide as competitor
T3 construct: A peptide was tested, not the whole protein
T3 peptide: LLARDCQDHS
Description: (§1) The specificity of the antibody was tested by including an elongated standard peptide with an additional amino acid added to the N-terminal of the target peptide sequence ([…]; SEQ ID NO: 2), a truncated standard peptide with a removal of the first N-terminal amino acid ([…]; SEQ ID NO: 3) as well as a non-sense standard peptide ([…]; SEQ ID NO: 4) and a non-sense biotinylated coating peptide ([…]-biotin; SEQ ID NO: 5) in the assay validation. Four peptides (Von Willebrand factor, glucagon, SPARC-like protein 1 and ADAMTS15) with one amino acid mismatch compared to the first six amino acids in the target sequence were also included to further test the antibody specificity. The immunogenic peptide ([…]-GGC-KLH; SEQ ID NO: 6) was generated by covalently cross-linking the standard peptide to Keyhole Limpet Hemocyanin (KLH) carrier protein using Succinimidyl 4-(N-maleimidomethyl)cyclohexane-1-carboxylate, SMCC (Thermo Scientific, Waltham, MA, USA, cat.no. 22336). Glycine and cysteine residues were added at the C-terminal end to ensure right linking of the carrier protein.
(§2) A 96-well streptavidin-coated microtiter plate was coated with 1.1 ng/mL biotinylated coating peptide dissolved in assay buffer (50 mM Tris-BTB, 4 g/L NaCl, pH 8.0) and incubated for 30 min. at 20° C. in darkness shaking (300 rpm). Twenty µL standard peptide or pre-diluted serum (1:4) were added to appropriate wells, followed by the addition of 100 µL monoclonal antibody dissolved in assay buffer to a concentration of 14 ng/mL to each well and incubated 1 hour at 20° C. in darkness shaking (300 rpm). One hundred µL of goat anti-mouse POD-conjugated IgG antibody (Thermo Scientific, Waltham, MA, USA, cat. #31437) diluted 1:6000 in assay buffer was added to each well and incubated 1 hour at 20° C. in darkness shaking. All incubation steps were followed by five washes in washing buffer (20 mM Tris, 50 mM NaCl, pH 7.2). Finally, 100 µL tetramethylbenzidine (TMB) (cat. 438OH, Kem-En-Tec Diagnostics, Denmark) was added to each well and the plate was incubated for 15 minutes at 20° C. in darkness shaking. The enzymatic reaction was stopped by adding 0.18 M H₂SO₄ and absorbance was measured at 450 nm with 650 nm as reference. A calibration curve was plotted using a 4-parameter logistic curve fit. Data were analyzed using the SoftMax Pro v.6.3 software.

[4] = target: T4, SPARC-like protein 1 (SLP1) peptide LLLRDFKKNY (human); assay: competitive SPARC-M ELISA, peptide as competitor
T4 construct: A peptide was tested, not the whole protein
T4 peptide: LLLRDFKKNY
Description: as §1, §2

[5] = target: T5, Glucagon (GCG) peptide LAARDFINWL (human); assay: competitive SPARC-M ELISA, peptide as competitor
T5 construct: A peptide was tested, not the whole protein
T5 peptide: LAARDFINWL
Description: as §1, §2

[6] = target: T6, ADAMTS15 (A15) peptide LLARDQCNLH (human); assay: competitive SPARC-M ELISA, peptide as competitor
T6 construct: A peptide was tested, not the whole protein
T6 peptide: LLARDQCNLH
Description: as §1, §2

[7] = target: T7, Recombinant human SPARC, full-length, uncleaved (human, UniProt P09486 18-303); assay: competitive SPARC-M ELISA on recombinant SPARC incubated without protease
T7 construct: Incubated in MMP buffer without protease and then measured in the SPARC-M ELISA; also called recombinant full-length SPARC; osteonectin
T7 sequence (looked up): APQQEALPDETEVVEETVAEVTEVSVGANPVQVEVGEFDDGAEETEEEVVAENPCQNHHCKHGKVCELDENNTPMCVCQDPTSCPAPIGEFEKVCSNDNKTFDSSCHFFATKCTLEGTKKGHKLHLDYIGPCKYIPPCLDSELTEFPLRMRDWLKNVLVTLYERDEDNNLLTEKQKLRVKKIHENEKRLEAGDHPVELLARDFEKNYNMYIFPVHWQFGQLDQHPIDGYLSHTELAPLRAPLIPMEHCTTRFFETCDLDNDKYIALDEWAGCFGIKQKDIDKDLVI

binding result [1]: no binding
binding result [2]: binds
binding result [3]: no binding
binding result [4]: no binding
binding result [5]: no binding
binding result [6]: no binding
binding result [7]: no binding
B1: SPARC-M monoclonal antibody (antibody, mouse IgG1, kappa, V domains shown)
VH: EVKLVESGGGLVKPGGSLKLSCAASGFTFSRNAMSWVRQTPEKRLEWVASISTSDNTYYPDSVKGRFTISKDNARNILYLQMSSLRSEDTAMYYCASGFDVGAYWGQGTLVTVSA
VL: DVLMTQTPLSLPVSLGDQASISCRSSQSIVHSNGNTYLEWYLQKPGQSPKLLIYKVSNRFSGVPDRFSGSGSGTDFTLKISRVDTEDLGVYYCFQGSHVPLTFGAGTKLELKR
notes: also called the antibody; the selected antibody
